{"source": "patent US8691960B2", "about": "“Oxidoreductases for enantioselective reactions” (Duke University, priority 2012, dated 2014)", "molecules": {"B1": {"name": "ScHIDH-R143H: Saccharomyces cerevisiae homoisocitrate dehydrogenase R143H mutant, an (R)-2-hydroxyadipate dehydrogenase (protein)", "chain": "MFRSVATRLSACRGLASNAARKSLTIGLIPGDGIGKEVIPAGKQVLENLNSKHGLSFNFIDLYAGFQTFQETGKALPDETVKVLKEQCQGALFGAVQSPTTKVEGYSSPIVALRREMGLFANVRPVKSVEGEKGKPIDMVIVHENTEDLYIKIEKTYIDKATGTRVADATKRISEIATRRIATIALDIALKRLQTRGQATLTVTHKSNVLSQSDGLFREICKEVYESNKDKYGQIKYNEQIVDSMVYRLFREPQCFDVIVAPNLYGDILSDGAAALVGSLGVVPSANVGPEIVIGEPCHGSAPDIAGKGIANPIATIRSTALMLEFLGHNEAAQDIYKAVDANLREGSIKTPDLGGKASTQQVVDDVLSRL", "modifications": "ScHIDH R143H polypeptide", "notes": "Saccharomyces cerevisiae homoisocitrate dehydrogenase R143H mutant, an (R)-2-hydroxyadipate dehydrogenase"}}, "type_in_all_cases": "biochemical", "key": {"[1]": {"experiment": "NADH oxidation rate of purified HIDH mutants with 2-oxoglutarate as substrate", "conditions": "ScHIDH-R143H", "experimental": "(§1) NADH, 2-oxoadipate, 2-oxoglutarate, 2-heptandioate, and MgCl2 were from Sigma. Standard reaction mixes contained 15 mM 2-oxoadipate, 100 μM NADH, and a reaction buffer with final concentrations of 20 mM MgCl2 and 500 mM HEPES, pH 7.3. NADH oxidation was monitored by the decrease in fluorescence with excitation of 340 nm and emission of 450 nm on a PolarSTAR Optima plate reader (BMG Labtech). Fluorescence monitored reactions were carried out in 10-μL volumes in a 384-well black microplate (Greiner 788076) covered with clear optical film. The levels of fluorescence were converted to NADH concentrations based on standards of NADH in reaction buffer containing BSA. Reactions with high amounts of NADH were monitored by the UV absorbance of NADH at 340 nm in 40-μL reaction volumes in clear 96-well plates.\n(§2) Reaction rates are NADH oxidation per unit time per unit of purified enzyme or crude lysate and 1 Unit (U) is 1 μmolNADH min^−1 mgenzyme^−1. Rates are initial rates calculated by least squares linear regression on the first 10 minutes of the reaction. For KM determination, concentrations of substrate/cofactors at least 5×-higher than the KM were used, while the species of interest was varied in concentration; substrate/cofactor concentrations: 500 μM NADH; 15 mM 2-oxoadipate; 20 mM MgCl2. […]"}, "[2]": {"experiment": "NADH oxidation rate of purified ScHIDH-R143H with 2-oxoheptanedioic acid as substrate", "experimental": "as §1, §2"}, "[3]": {"experiment": "Kinetic characterization of ScHIDH mutants: KM NADH", "experimental": "(§3) Reaction rates are NADH oxidation per unit time per unit of purified enzyme or crude lysate and 1 Unit (U) is 1 μmolNADH min^−1 mgenzyme^−1. Rates are initial rates calculated by least squares linear regression on the first 10 minutes of the reaction. For KM determination, concentrations of substrate/cofactors at least 5×-higher than the KM were used, while the species of interest was varied in concentration; substrate/cofactor concentrations: 500 μM NADH; 15 mM 2-oxoadipate; 20 mM MgCl2. Reported α-hydroxyadipate (2-hydroxy adpic acid) Vmax values were obtained from 2-oxoadipate KM determination experiments. Michaelis-Menten KM and Vmax parameters were estimated by fitting data to a curve using nonlinear regression in GraphPad Prism 5.0 (GraphPad Software, La Jolla, Calif.).\n(§4) Assays were performed with 40 ng/μL enzyme, 15 mM 2-oxoadipate, 100 μM NADH, 20 mM MgCl2 and 100 mM HEPES, pH 7.3 in 10 or 20 μL volumes in 384-well black microplates. NADH concentration was monitored by the decrease in fluorescence (excitation wavelength: 340 nm; emission wavelength: 450 nm) on a fluorescent plate reader. The fluorescence intensities were converted to NADH concentrations based on NADH standards. Reactions with high amounts of NADH (>300 μM) were monitored by the UV absorbance of NADH at 340 nm in a 40 μL reaction volume in a clear 96-well plate on the same plate reader. Reactions with ScHIDH were carried out at 25° C. and reactions with TtHIDH were carried out at 45° C. Reported rates are initial rates from the first 10 minutes of reaction. For KM determination, concentrations of substrate at least 5×-higher than the KM were used (for NADH, 500 μM; for 2-oxoadipate, 15 mM) while the substrate of interest was varied in concentration. KM and Vmax were estimated by fitting data to equation (1) using nonlinear regression, where x is substrate concentration and y is the rate. y=Vmax·x/KM+x (1) Rate data for ScHIDH-R143C, -R143H, and -R143K are summarized in Table 3."}, "[4]": {"experiment": "pH dependence of ScHIDH-R143H", "experimental": "as §4\nScHIDH-R143H activity was assayed in HEPES buffer at various pH under the standard reaction conditions described in Example 11, above. The rate is relative to the rate at pH 7.4. […]"}, "[5]": {"experiment": "Magnesium dependence of ScHIDH-R143H", "experimental": "as §4\nScHIDH-R143H activity was assayed at various MgCl2 concentrations under the standard reaction conditions described in Example 11. The rate is relative to the rate at 20 mM MgCl2. […]"}, "[6]": {"experiment": "Enantiospecific LC-MS/MS quantification of (R)- and (S)-2-hydroxyadipate product", "experimental": "Quantitative, enantiospecific LC-MS/MS was performed based on the procedure described for 2-hydroxyglutarate. Jin et al., PLoS one 6, e16812: 1-8 (2011); Struys, et al., Clin. Chem. 50: 1391-1395 (2004). To 20 μL of reaction mix, 2 μL of 130 μg/mL of a racemic mixture of [3,3,4,4-^2H4]-2-hydroxyglutarate (internal standard) in water was added and the mixture dried by vacuum centrifuge (50° C., 15 min). The dry residue was treated with 50 mg/mL freshly prepared diacetyl-L-tartaric anhydride (Sigma) in dichloromethane/glacial acetic acid (4:1 by volume) and heated (75° C., 30 min). After drying (50° C., 15 min) the residue was dissolved in 100 μL of LC mobile phase A (see below) for analysis. An Agilent 1200 series HPLC (Santa Clara, Calif.) was used for liquid chromatography (LC) and a Sciex/Applied Biosystems API 3200 QTrap (Carlsbad, Calif.) was used for triple quadrupole mass spectrometry (MS/MS). Mobile phase A: water, 3% acetonitrile, 280 μL ammonium hydroxide (^˜25%), pH adjusted to 3.6 with formic acid (^˜98%). Mobile phase B: methanol. Analytical column: Kinetex C-18, 150×4.6 mm, 2.6 μm, and SafeGuard C-18 4×3 mm guard-column from Phenomenex (Torrance, Calif.). Column temperature: 45° C. Elution gradient at 1 mL/min flow rate: 0-1 min 0% B, 1-2 min 0-100% B, 2-3.5 min 100% B, 3.5-4 min 100-0% B, 4-10 min 0% B. Injection volume: 10 μL. Q1/Q3 (m/z) transitions were monitored: 377/161, 2-hydroxyadipate (2HA) and 367/151, [3,3,4,4-^2H4]-2-hydroxyglutarate (2HG-d4). To calibrate, 0, 0.16, 0.54, 1.8, 6, and 20 μg/mL 2-hydroxyadipate (Sigma), synthesized as described above, was analyzed in reaction buffer. (R)- and (S)-enantiomers were discriminated based on time of elution from the HPLC column, using the relative elution time for (R)-2-hydroxyglutarate compared to the racemic mixture of 2-hydroxyglutarate described previously to identify the (R)-2-hydroxyadipate enantiomer. Jin et al., PLoS one 6, e16812: 1-8 (2011). Standards were analyzed alongside experimental samples. Accuracy acceptance criteria were 85% for all but the lowest level (0.16 μg/mL, 80%)."}, "[7]": {"experiment": "NADH oxidation with 2-oxoadipate plus CO2 added as NaHCO3 (reductive carboxylation)", "conditions": "up to 60 mM NaHCO3", "experimental": "as §1, §3"}, "[8]": {"experiment": "NADH oxidation rate of purified HIDH enzymes with 2-oxoadipate (fluorescence / UV 340 nm)", "experimental": "as §1, §3, §4"}, "[9]": {"experiment": "Kinetic characterization of ScHIDH mutants: KM 2-oxoadipate and Vmax", "experimental": "as §3, §4"}, "[10]": {"conditions": "ScHIDH, initially 2 mM NADH and 2 mM 2-oxoadipate, 10 h"}}}
{"molecule": "B1", "values": [{"measurement": "NADH oxidation rate in the presence of 15 mM 2-oxoglutarate", "setting": "[1]", "value": "< 0.001", "unit": "U"}, {"measurement": "NADH oxidation rate in the presence of 15 mM 2-oxoheptanedioic acid", "setting": "[2]", "value": "< 0.001", "unit": "U"}, {"measurement": "Km", "setting": "[3]; Table 3, 15 mM 2-oxoadipate, 20 mM MgCl2, pH 7.3, 25° C.", "value": 88, "unit": "µM"}, {"measurement": "Km", "setting": "[3]; purified enzyme", "value": "85 ± 21", "unit": "µM"}, {"measurement": "pH optimum", "setting": "[4]; HEPES buffer at various pH, standard conditions", "value": 7.4}, {"measurement": "pH optimum", "setting": "[4]; Table 3, HEPES buffer", "value": 7.4}, {"measurement": "Km", "setting": "[5]; Table 3, read-out: KM MgCl2", "value": 1200, "unit": "µM"}, {"measurement": "Km", "setting": "[5]; various MgCl2 concentrations, standard conditions, read-out: KM for MgCl2", "value": 1100, "unit": "µM"}, {"measurement": "concentration of (R)-2-hydroxyadipate after 10 h", "setting": "[6]; [10]", "value": 0.97, "unit": "mM"}, {"measurement": "Enantiomeric Excess", "setting": "[6]; Table 3, (R)-2-hydroxyadipate product", "value": "> 99.1", "unit": "%"}, {"measurement": "stimulation by addition of NaHCO3", "setting": "[7]", "value": "not stimulated"}, {"measurement": "rate of NADH oxidation in the presence of 2-oxoadipate", "setting": "[8]; ScHIDH, 15 mM 2-oxoadipate, 100 μM NADH, 0.4 μg purified enzyme", "value": "0.0096±0.000014", "unit": "U"}, {"measurement": "decrease of NADH concentration after 10 h compared to a buffer control", "setting": "[8]; [10]", "value": 0.62, "unit": "mM"}, {"measurement": "NADH oxidation rate, reaction containing no substrate", "setting": "[8]; ScHIDH-R143H, no substrate", "value": "< 0.001", "unit": "U"}, {"measurement": "Km", "setting": "[9]; Table 3, 40 ng/μL enzyme, 500 μM NADH, 20 mM MgCl2, pH 7.3, 25° C.", "value": 2000, "unit": "µM"}, {"measurement": "Vmax", "setting": "[9]; Table 3, from 2-oxoadipate KM experiments", "value": 0.036, "unit": "µmol/min/mg"}, {"measurement": "Km", "setting": "[9]; purified enzyme", "value": "1400 ± 250", "unit": "µM"}, {"measurement": "maximal velocity (Vmax)", "setting": "[9]; purified enzyme", "value": "0.020±0.0027", "unit": "U"}]}
